The RNAGym collection of RNA variant scans (doi:10.1073/pnas.2313332121)

B1: TPR t1 (parent)
chain: GACCAAUCUGCCCUCAGAGCUCGAGAACAUCUUCGGAUGCAGAGGAGGCAGGCUUCGGUGGCGCGAUAGCGCCAACGUCCUCAACCUCCAAUGCAUCCCACCACAUGAUGAUGCCUGAAGAGCCUUGGUUUUUUG

Variants of: B1
Assay: polymerase ribozyme fitness, log enrichment relative to wild type (log ratio); higher = more active; in vitro selection for triplet polymerase activity
Method in brief: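 Fitness measures genotype enrichment against wild-type enrichment on a logarithmic scale, with inverse-variance-weighted averaging of replicates. The logarithm is base 2, and genotypes were kept only with ≥10 input reads and ≥1 read per output in Illumina sequencing. The sequenced libraries came from one triplicate in vitro selection round, including frozen incubation at −7 °C, of PCR-built, transcribed mutant libraries of each subunit of a heterodimeric triplet polymerase ribozyme.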

Row | Variant | polymerase ribozyme fitness (log ratio)
1 | GACCAAUUUGCCCUCAGAGCUCGAGAACAUCUUCGGAUGCAUAGGAGGCAGGCUUCGGUGGCGCGAUAGCGCCAACGUCCUCAACCUCCAAUGCAUCCCACCACAUGAUGAUGCCUGAAGAGCCUUGGUUUUUUG [C8U G42U] | -0.81
2 | GACCAAUUUGCCCUCAGAGCUCGAGAACAUCUUCGGAUGCAGAGGAGGCAAGCUUCGGUGGCGUGAUAGCGCCAACGUCCUCAACCUCCAAUGCAUCCCACCAGAUGAUGAUGCCUGAACAGCCUUGGUUUUUUG [C8U G51A C64U C104G G120C] | -6.76
3 | GACCAAUUUGCCCUCAGAGCUCGAGAACAUCUUCGGAUGCAGAAGAGGCAGGCUUAGGUGGCGCGAUAGCGCCAACGUCCUCAACCUCCAAUGCAUCCCACCACAUGAUGAUGCCUGAAGAGCCUUGGUUUUUUG [C8U G44A C56A] | -0.314
4 | GACCAAUUUUCCCUCAGAGCUCGAGAACAUCUUCGGAUGCAGAGGAGGCAGGCUUCGGUGGCGCGAUAGCGUCAACGUCCUCAACCUCCAAUGCAUCCCACCACAUGAUGAUGCCUGAAGAGCCUUGGUUUUUUG [C8U G10U C72U] | -0.279
5 | GACCAAUUUGCCCUCAGAGCUCGAGAACAUCUUCGGAUGCAGAGGAGGCAGCCUUCGGUGGCGCGAUAGCGCCAACGUCCUCAACCUCCAAUGCAUCCCACCACAUGAUGAUGCCUGAAGAGCCUUGGUUUUUUG [C8U G52C] | -0.0551
6 | GACCAAUUUGCCCUCAGAGCUCGAGAACAUCUUCGGAUGCAGAAGAGGCAGGCUUCGGUGGCGCGAUAGCGCCAACGUCCUCAACCUCCAAUGCAUCCCACCACAUGAUGAUGCCUGAAGAGCCUUGGUUUUUUG [C8U G44A] | -0.0714
7 | GACCAAUUUGCCCUCAGAGCUCGAGAACAUCUUCGGAUGCAGAGGACGCAGGCUUCGGUGGUGCGAUAGCGCCAACGUCCUCAACCUCCAAUGCAUCCCACCACAUGAUGAUGCCUGAAGAGCCUUGGUUUUUUG [C8U G47C C62U] | -1.51
8 | GACCAAUUUGCCCUCAGAGCUCGAGAACAUCUUCGGAUUCAGAGGAGGGAGGCUUCGGUGGCACGAUAGCGCCAACGACCUCAACCUCCAAUGCAUCCCACCACAUGAUGAUGCCUGAAGAGCCUUGAUUUUUUG [C8U G39U C49G G63A U78A G128A] | -3.94
9 | GACCAAUUUGCCCUCAGAGCUCGAGAACAUCUUCGGAUCCAGAGGAGGCAGGCUUCGGUGGCGCGAUAGCGCCAACGUCCUCAACCUCCAAUGCAUCCCACCACAUGAUGAUGCCUGAAGAGCCUUGGUUUUUUG [C8U G39C] | 0.0547
10 | GACCAAUUUGCCCUCAGAGCUCGAGAACAUCUUCGGAUGCAGAAGAGGCAGGCUUCGGUGGCGCGAUAGCGCCAACGUCCUCAACCUCCAAUGCAUCCCACCACAUGAAGAUGCCUGAAGAGCCUUGGUUUUUUG [C8U G44A U109A] | -5.08
11 | GACCAAUUUGCCCUCAGAGCUCGAGAACAUCUUCGGAUGCAGAGGAGUCUGGCUUCGGUGGCGCGAUAUCGCCAACGUCCUCAACUUCCAAUGCAACCCACCACAUGAUGAUGCCUGAAGAGCCUUGGUUUUUUG [C8U G48U A50U G69U C86U U96A] | -1.23
12 | GACCAAUUUGCCCUCAGAGCUCGAGAACAUCUUCGGAUGCAAAGGAGGCAGGCUUCGGUGGCGCGAUAGCGCCAACGUCCUCAACCUCCAAUGCAUCCCACCACAUGAUGGUGCCAGAAGGGCGUUGGUUUUUUG [C8U G42A A111G U116A A121G C124G] | -2.21
13 | GACCAAUUUGCCCUCAGACCUCGAGAACAUCUUCGGAUGCAUAGGAGGCAGGCUUCGGUGGGGCGAUAGCGCCAACGUCCUCAACCUCCAGUGCAUCCCACCACAUGAUGAUGCCUGAAGAGUCUUGGUUUUUUG [C8U G19C G42U C62G A91G C123U] | -2.98
14 | GACCAAUUUGCCCUCAGAGCUCGAGAACAUCUUCGGAUGCAGAAGAGGCAGGCUUCGGUGGCGCGAUAGCGCCAACGUCCUCAACCUCCAAUGCAUCCCACCAUAUGAUGAUGCCUGAAGAGCCUUGGUUUUUUG [C8U G44A C104U] | 0.0147
15 | GACCAAUUUGCCCUCAUAGCUCGAGAACAUCUUCGCAUGCAGAGGAGGCAGGCUUCGGUGGCGCGAUAGCUCCAACGUCCUGAACCUCCAAUGCAUCCCACCACAUGAUGAUGCCUGAAGAGCCUUGGUUUUUUG [C8U G17U G36C G71U C82G] | -4.44
16 | GACCAAUUUGCCCUCAGAGCUCGAGAACAUCUUCGGAUGCAGAGGAGCCAGGCUUCGGUGGCGCGAUAUCGCCAACGUCCUCAACCUCCAAUGCAUCCCACCACAUGAUGAUGCCUGAAGAGCCUUGGUUUUUUG [C8U G48C G69U] | 0.0683
17 | GACCAAUUUGCCCUCAGAGCUCGAGAACAUCUUCGGAUGCAGAGGAGGCAAGCUUCGGUGGCGCGAUAGCGCCAACGUCCUCAACCUCCAAUGCAUCCCACCACAUGAUGAUGCCUGAAGAGCCUUGGUUUUUUG [C8U G51A] | -1.3
18 | GACCAAUUUGCCCUCAGACCUCGAGAACAUCUUCGGAUGCAGUGGAGGCAGGCUUCGGUGGCGCGAUAGCGCCAACGUCCUCAACCUCCAAUGAAUCCCACCACAUGAUGAUGCAUGAAUAGCCUUGGUUUUAUG [C8U G19C A43U C94A C115A G120U U133A] | -2.68
19 | GACCAAUUUGCCCUCAGAGCUCGAGAACAUCUUCGUAUGCAGAGGAGGCAGGCUUCGGUGGCGCGAUAGCGCCAACGCCCUCAACCUGCAAUGCAUCCCAACACAUGAUGAUGCCUGAAGAGCCUUGGUUUUUUG [C8U G36U U78C C88G C101A] | -3.59
20 | GACCAAUUUGCCCUCAGAGCUCGAGAACAUCUUCGGAUCCAGAGGAGGCAGGCUUCGGUGGCGCGAUAGCGCCAACGUUCUCAACCUCCAAUGCAUCCCACCACAUGAUGAUGCCUGAAUAGCCUUGGUUUUUUG [C8U G39C C79U G120U] | 1.3
21 | GACCAAUUUGCCCUCAGAGCUCGAGAACAUCUUCGGAUGCAGAGUAGGCAGGCUUCGGCGGCGCGAUAGCGCCAACGUCCUCAACCUCCAAAGCAUCCCACCACAUGAUGAUGCCUGAAGAGCCUUGGUUUUUUG [C8U G45U U59C U92A] | -4.17
